These results are taken from article PMC10786891, “Massively parallel profiling of RNA-targeting CRISPR-Cas13d”.

Sequences and labels used below:
T1: EsCas13d, nuclease-dead (Eubacterium siraeum, UniProt B0MS50, R295A;H300A;R849A;H854A)
T1 sequence: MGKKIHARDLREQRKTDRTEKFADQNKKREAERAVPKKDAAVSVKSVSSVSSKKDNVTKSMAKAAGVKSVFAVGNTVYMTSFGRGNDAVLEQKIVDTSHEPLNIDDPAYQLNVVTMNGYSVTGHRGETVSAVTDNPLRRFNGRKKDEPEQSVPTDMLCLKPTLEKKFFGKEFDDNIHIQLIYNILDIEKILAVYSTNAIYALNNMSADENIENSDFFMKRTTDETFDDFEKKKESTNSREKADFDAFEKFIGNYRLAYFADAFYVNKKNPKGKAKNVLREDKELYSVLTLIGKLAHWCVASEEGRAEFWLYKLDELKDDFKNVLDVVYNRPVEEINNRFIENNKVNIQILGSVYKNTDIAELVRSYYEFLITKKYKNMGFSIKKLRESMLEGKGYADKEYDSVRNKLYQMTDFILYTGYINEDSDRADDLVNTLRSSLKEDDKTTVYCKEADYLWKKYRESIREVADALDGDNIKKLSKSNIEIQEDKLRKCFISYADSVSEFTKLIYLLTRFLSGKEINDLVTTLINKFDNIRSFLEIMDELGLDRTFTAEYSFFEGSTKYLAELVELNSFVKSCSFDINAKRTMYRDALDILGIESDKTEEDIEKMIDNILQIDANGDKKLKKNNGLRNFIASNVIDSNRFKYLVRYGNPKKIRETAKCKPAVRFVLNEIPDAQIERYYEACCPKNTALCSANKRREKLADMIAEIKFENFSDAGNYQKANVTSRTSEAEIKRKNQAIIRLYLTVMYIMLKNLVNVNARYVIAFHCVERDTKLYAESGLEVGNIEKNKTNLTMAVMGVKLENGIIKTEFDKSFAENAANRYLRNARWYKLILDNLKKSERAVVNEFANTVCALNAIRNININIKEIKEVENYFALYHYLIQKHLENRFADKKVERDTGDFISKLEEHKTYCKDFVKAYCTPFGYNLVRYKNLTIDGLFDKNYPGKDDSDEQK

B1: target 1 C6A,C7G (mixed)
RNA 1: CACCCGUGCAAAAAUGCAGGGGUCUAAAACUGAGCGGAUAACCUCUCUAUGG
RNA 2: GGGAAUGGAUCCACAUCUACGAAUUCGUACCAUAGAGAGGUUAUGAGCUCACCGAGAUCGGAAGAGCACACGU
B2: target 1 C2A,G17U (mixed)
RNA 1: CACCCGUGCAAAAAUGCAGGGGUCUAAAACUGAGCGGAUAACCUCUCUAUGG
RNA 2: GGGAAUGGAUCCACAUCUACGAAUUCGUACCAUAUAGAGGUUAUCCGCUAACCGAGAUCGGAAGAGCACACGU
B3: target 1 C2G,A14C (mixed)
RNA 1: CACCCGUGCAAAAAUGCAGGGGUCUAAAACUGAGCGGAUAACCUCUCUAUGG
RNA 2: GGGAAUGGAUCCACAUCUACGAAUUCGUACCAUAGAGCGGUUAUCCGCUGACCGAGAUCGGAAGAGCACACGU
B4: target 3 insA 3' of 19,insU 3' of 1 (mixed)
RNA 1: CACCCGUGCAAAAUUGCAGGGGUCUAAAACGACCUGAAUAUUUCAGAUCAAA
RNA 2: GGGAAUGGAUCCACAUCUACGAAUUCGUUUUUGAAUCUGAAAUAUUCAGGUCUUGCAGAUCGGAAGAGCACACGU
B5: target 3 insG 3' of 22,insG 3' of 22 (mixed)
RNA 1: CACCCGUGCAAAAUUGCAGGGGUCUAAAACGACCUGAAUAUUUCAGAUCAAA
RNA 2: GGGAAUGGAUCCACAUCUACGAAUUCGUUUGGUUGAUCUGAAAUAUUCAGGUCUGCAGAUCGGAAGAGCACACGU
B6: target 3 U2C,G14U (mixed)
RNA 1: CACCCGUGCAAAAUUGCAGGGGUCUAAAACGACCUGAAUAUUUCAGAUCAAA
RNA 2: GGGAAUGGAUCCACAUCUACGAAUUCGUUUUUGAUCUUAAAUAUUCAGGCCUGCAGAUCGGAAGAGCACACGU
B7: target 3 insA 3' of 10,insU 3' of 6 (mixed)
RNA 1: CACCCGUGCAAAAUUGCAGGGGUCUAAAACGACCUGAAUAUUUCAGAUCAAA
RNA 2: GGGAAUGGAUCCACAUCUACGAAUUCGUUUUUGAUCUGAAAUAAUUCUAGGUCUGCAGAUCGGAAGAGCACACGU
B8: target 3 G4C,U22C (mixed)
RNA 1: CACCCGUGCAAAAUUGCAGGGGUCUAAAACGACCUGAAUAUUUCAGAUCAAA
RNA 2: GGGAAUGGAUCCACAUCUACGAAUUCGUUCUUGAUCUGAAAUAUUCACGUCUGCAGAUCGGAAGAGCACACGU
B9: target 3 G3C,C6U (mixed)
RNA 1: CACCCGUGCAAAAUUGCAGGGGUCUAAAACGACCUGAAUAUUUCAGAUCAAA
RNA 2: GGGAAUGGAUCCACAUCUACGAAUUCGUUUUUGAUCUGAAAUAUUUAGCUCUGCAGAUCGGAAGAGCACACGU
B10: target 3 C1G,A9G (mixed)
RNA 1: CACCCGUGCAAAAUUGCAGGGGUCUAAAACGACCUGAAUAUUUCAGAUCAAA
RNA 2: GGGAAUGGAUCCACAUCUACGAAUUCGUUUUUGAUCUGAAAUGUUCAGGUGUGCAGAUCGGAAGAGCACACGU
B11: target 3 G4C,U21C (mixed)
RNA 1: CACCCGUGCAAAAUUGCAGGGGUCUAAAACGACCUGAAUAUUUCAGAUCAAA
RNA 2: GGGAAUGGAUCCACAUCUACGAAUUCGUUUCUGAUCUGAAAUAUUCACGUCUGCAGAUCGGAAGAGCACACGU
B12: target 3 insC 3' of 9,insC 3' of 5 (mixed)
RNA 1: CACCCGUGCAAAAUUGCAGGGGUCUAAAACGACCUGAAUAUUUCAGAUCAAA
RNA 2: GGGAAUGGAUCCACAUCUACGAAUUCGUUUUUGAUCUGAAAUACUUCACGGUCUGCAGAUCGGAAGAGCACACGU
B13: target 3 U21C,U22A (mixed)
RNA 1: CACCCGUGCAAAAUUGCAGGGGUCUAAAACGACCUGAAUAUUUCAGAUCAAA
RNA 2: GGGAAUGGAUCCACAUCUACGAAUUCGUUACUGAUCUGAAAUAUUCAGGUCUGCAGAUCGGAAGAGCACACGU
B14: target 3 insC 3' of 8,insA 3' of 3 (mixed)
RNA 1: CACCCGUGCAAAAUUGCAGGGGUCUAAAACGACCUGAAUAUUUCAGAUCAAA
RNA 2: GGGAAUGGAUCCACAUCUACGAAUUCGUUUUUGAUCUGAAAUAUCUCAGGAUCUGCAGAUCGGAAGAGCACACGU
B15: target 3 insC 3' of 13,insU 3' of 3 (mixed)
RNA 1: CACCCGUGCAAAAUUGCAGGGGUCUAAAACGACCUGAAUAUUUCAGAUCAAA
RNA 2: GGGAAUGGAUCCACAUCUACGAAUUCGUUUUUGAUCUGACAAUAUUCAGGUUCUGCAGAUCGGAAGAGCACACGU
B16: target 3 insA 3' of 8,insG 3' of 8 (mixed)
RNA 1: CACCCGUGCAAAAUUGCAGGGGUCUAAAACGACCUGAAUAUUUCAGAUCAAA
RNA 2: GGGAAUGGAUCCACAUCUACGAAUUCGUUUUUGAUCUGAAAUAUAGUCAGGUCUGCAGAUCGGAAGAGCACACGU
B17: target 3 G4C,U20C (mixed)
RNA 1: CACCCGUGCAAAAUUGCAGGGGUCUAAAACGACCUGAAUAUUUCAGAUCAAA
RNA 2: GGGAAUGGAUCCACAUCUACGAAUUCGUUUUCGAUCUGAAAUAUUCACGUCUGCAGAUCGGAAGAGCACACGU
B18: target 3 del4,del6 (mixed)
RNA 1: CACCCGUGCAAAAUUGCAGGGGUCUAAAACGACCUGAAUAUUUCAGAUCAAA
RNA 2: GGGAAUGGAUCCACAUCUACGAAUUCGUUUUUGAUCUGAAAUAUUAGUCUGCAGAUCGGAAGAGCACACGU
B19: target 3 G4U,U7C (mixed)
RNA 1: CACCCGUGCAAAAUUGCAGGGGUCUAAAACGACCUGAAUAUUUCAGAUCAAA
RNA 2: GGGAAUGGAUCCACAUCUACGAAUUCGUUUUUGAUCUGAAAUAUCCAUGUCUGCAGAUCGGAAGAGCACACGU
B20: target 3 G19U,U22A (mixed)
RNA 1: CACCCGUGCAAAAUUGCAGGGGUCUAAAACGACCUGAAUAUUUCAGAUCAAA
RNA 2: GGGAAUGGAUCCACAUCUACGAAUUCGUUAUUUAUCUGAAAUAUUCAGGUCUGCAGAUCGGAAGAGCACACGU
B21: target 3 U2A,U7G (mixed)
RNA 1: CACCCGUGCAAAAUUGCAGGGGUCUAAAACGACCUGAAUAUUUCAGAUCAAA
RNA 2: GGGAAUGGAUCCACAUCUACGAAUUCGUUUUUGAUCUGAAAUAUGCAGGACUGCAGAUCGGAAGAGCACACGU
B22: target 3 insA 3' of 21,insU 3' of 5 (mixed)
RNA 1: CACCCGUGCAAAAUUGCAGGGGUCUAAAACGACCUGAAUAUUUCAGAUCAAA
RNA 2: GGGAAUGGAUCCACAUCUACGAAUUCGUUUUAUGAUCUGAAAUAUUCAUGGUCUGCAGAUCGGAAGAGCACACGU
B23: target 3 G3C,G4U (mixed)
RNA 1: CACCCGUGCAAAAUUGCAGGGGUCUAAAACGACCUGAAUAUUUCAGAUCAAA
RNA 2: GGGAAUGGAUCCACAUCUACGAAUUCGUUUUUGAUCUGAAAUAUUCAUCUCUGCAGAUCGGAAGAGCACACGU
B24: target 3 insA 3' of 14,insA 3' of 6 (mixed)
RNA 1: CACCCGUGCAAAAUUGCAGGGGUCUAAAACGACCUGAAUAUUUCAGAUCAAA
RNA 2: GGGAAUGGAUCCACAUCUACGAAUUCGUUUUUGAUCUGAAAAUAUUCAAGGUCUGCAGAUCGGAAGAGCACACGU
B25: target 3 insU 3' of 22,insG 3' of 7 (mixed)
RNA 1: CACCCGUGCAAAAUUGCAGGGGUCUAAAACGACCUGAAUAUUUCAGAUCAAA
RNA 2: GGGAAUGGAUCCACAUCUACGAAUUCGUUUUUUGAUCUGAAAUAUUGCAGGUCUGCAGAUCGGAAGAGCACACGU
B26: target 3 insA 3' of 14,insG 3' of 2 (mixed)
RNA 1: CACCCGUGCAAAAUUGCAGGGGUCUAAAACGACCUGAAUAUUUCAGAUCAAA
RNA 2: GGGAAUGGAUCCACAUCUACGAAUUCGUUUUUGAUCUGAAAAUAUUCAGGUGCUGCAGAUCGGAAGAGCACACGU
B27: target 3 G4C,A11G (mixed)
RNA 1: CACCCGUGCAAAAUUGCAGGGGUCUAAAACGACCUGAAUAUUUCAGAUCAAA
RNA 2: GGGAAUGGAUCCACAUCUACGAAUUCGUUUUUGAUCUGAAGUAUUCACGUCUGCAGAUCGGAAGAGCACACGU

This series has as its target T1, EsCas13d, nuclease-dead. Put plainly: crRNA (strand 1, pre-loaded); Mg2+; 40 mM Tris-HCl pH 7.5, 150 mM NaCl, 6 mM MgCl2, 1 mM DTT, 0.1% Tween-20, 0.2 mg/ml BSA; 25 C; 10 min per concentration, then washed. The following applies: tags: His6-TwinStrep-SUMO cleaved; N-terminal SNAP kept (SNAP-Surface 488); label: 3' end held by stalled T7 RNA polymerase.
Broadly, the Kd is the concentration at which binding is half-saturated. The low end stands for tighter binding, the high end for weaker binding. B1 gave a dissociation constant (Kd) of 6.86 ± 0.18 nM.
The result for B2 reads 30.5 ± 2.6 nM.
For B3, the affinity, expressed as Kd, was 44.8 ± 3.3 nM.
Turning to B4, binding was put at a Kd of 68 ± 21 nM.
The result for B5 reads 64.5 ± 13.5 nM.
As for B6, the figure is 82 ± 34 nM; as for B7, 79.5 ± 14.5 nM.
As for B8, the figure is 13 ± 2.15 nM.
In turn, B9 gave an equilibrium dissociation constant (Kd) of 13.1 ± 0.95 nM.
For the molecule B10, the Kd is 33.5 ± 8.5 nM.
The result for B11 reads 60 ± 21 nM; that for B12, 99 ± 21 nM.
B13: the affinity, expressed as Kd, was 30.5 ± 7 nM.
The molecule B14 returned a Kd of 93 ± 27 nM.
As for B15, the figure is 32.5 ± 8 nM.
As for B16, the figure is 53.5 ± 8.5 nM.
As for B17, the figure is 57 ± 12 nM.
Take B18: binding was characterised by a dissociation constant (Kd) of 19 ± 3.25 nM.
Take B19: the dissociation constant (Kd) worked out at 120 ± 40 nM.
Molecule B20 yielded a Kd of 80 ± 7 nM.
As for B21, the figure is 62.5 ± 10.5 nM; as for B22, 44 ± 4.65 nM.
As for B23, the figure is 18.3 ± 3.2 nM.
As for B24, the figure is 90.5 ± 25 nM; as for B25, 85 ± 26.5 nM.
With B26, the dissociation constant Kd came to 32.8 ± 3.65 nM.
As for B27, the figure is 54.5 ± 18.5 nM.
